Columns and labels:
Assay type in all cases: in vivo, C57BL/6 mice
[1] = system: murine model of respiratory inflammation (IT LPS); assay: BALF cytokine analysis (MSD) in LPS-induced murine model of respiratory inflammation; conditions: IV, 1 h before LPS
Experimental: All animal experiments were performed in accordance with the guidelines of decreasing the amount of suffering, pain, and discomfort of the experimental animals. A total of 54 male C57BL/6 mice were used in this study. Mice between the ages of 7 to 8 weeks were obtained from IACUC approved laboratory animal supplier. Animals were acclimated for at least 4 days prior to the study. Animals were housed in a temperature-controlled room with a 12-hour light/dark cycle, with ad libitum access to water and irradiated laboratory chow throughout the study. Animals were individually identified by ear tags. Animals were weighed one day prior to the start of the study and stratified into 6 groups of 9 animals so that each group has roughly the same average weight. Animals were monitored for any form of discomfort as well as for clinical symptoms of distress or ambulatory discomfort.
A total of 54 male C57BL/6 mice (7 to 8 weeks old, body weight […]) were used in this study, as set out below in Table 2.
At −1 h (1 hr before the lipopolysaccharide (LPS) administration), animals were treated with: Vehicle for groups 1 and 2 via an intravenous route (200 μL); dexamethasone (5 mg/kg) as a positive control (group 3) via an intraperitoneal (IP) route (5 mg/kg, 200 μL); MD31-170 for groups 4-6 via an intravenous (IV) route at the appropriate dosage (200 μL). […]
(§1) Lungs were harvested from each animal and weighed. […] The cell pellet was resuspended in 100 μL PBS and the number of total cells was counted using Cell Counter model R1 (Olympus, Tokyo, Japan). […] Neutrophil counts were quantified using a light microscope by counting a total of 200 cells/slide at 40× magnification.
BALF cytokines concentrations were evaluated from an aliquot of BALF using the 29-plex cytokine MSD Platform (Cat. K152167D) according to manufacturer's instruction.

[2] = system: murine model of respiratory inflammation (IT LPS); assay: Lung histological pathology (H&E, lung injury score) in LPS-induced murine model of respiratory inflammation
Experimental: (§2) At −1 h (1 hr before the lipopolysaccharide (LPS) administration), animals were treated with: Vehicle for groups 1 and 2 via an intravenous route (200 μL); dexamethasone (5 mg/kg) as a positive control (group 3) via an intraperitoneal (IP) route (5 mg/kg, 200 μL); MD31-170 for groups 4-6 via an intravenous (IV) route at the appropriate dosage (200 μL).
(§3) After administration of anesthesia by sodium pentobarbital, the mice underwent intra-tracheal (IT) instillation of a nonlethal dose of LPS from E. coli 0111: B4 (Sigma-Aldrich, St. Louis, MO, USA) at 5 mg/kg dissolved in 100 μl PBS to induce acute respiratory inflammation. LPS (Sigma L4391, O111: B4) lyophilized powder was resuspended in 0.9% saline to give aliquots at 2.5 mg/ml which were stored at […]. At time=0 h, animals in vehicle group 1 were administered PBS (40 μL) via an IT route and animals in groups 2-6 were administered LPS (40 μL) at 5 mg/kg by an IT route to induce acute respiratory inflammation. Termination occurred at either 6 h, 24 h or 72 h with each animal weighed at the endpoint.
The whole lung was fixed in 10% Neutral Buffered Formalin (NBF) and embedded in paraffin and then cut into 4 μm sections. Then, the sections were deparaffinized and stained with hematoxylin and eosin (H&E) for histological evaluation.
The severity of lung tissue inflammation was evaluated using lung injury score as follows. The severity of lung damage was scored based on the following histologic features: alveolar congestion, hemorrhage, infiltration of neutrophils in airspace or vessel wall, and thickness of alveolar wall/hyaline membrane formation. Each item was graded on a five-point scale from 0 to 4:0 (minimal damage), 1 (mild damage), 2 (moderate damage), 3 (severe damage), and 4 (maximal damage).

[3] = system: murine model of respiratory inflammation (IT LPS); assay: BALF neutrophil count in LPS-induced murine model of respiratory inflammation; conditions: all assessed timepoints (6, 24, 72 hours); FIG. 5
Experimental: as §2, §3, §1

[4] = system: murine model of respiratory inflammation (IT LPS); assay: MPO levels of BALF in LPS-induced murine model of respiratory inflammation; conditions: groups 4, 5 and 6 (2.5, 25, 100 μg/animal IV) at 6 hours and 24 hours; FIG. 6
Experimental: as §2
After administration of anesthesia by sodium pentobarbital, the mice underwent intra-tracheal (IT) instillation of a nonlethal dose of LPS from E. coli 0111: B4 (Sigma-Aldrich, St. Louis, MO, USA) at 5 mg/kg dissolved in 100 μl PBS to induce acute respiratory inflammation. LPS (Sigma L4391, O111: B4) lyophilized powder was resuspended in 0.9% saline to give aliquots at 2.5 mg/ml which were stored at 20° C. […]
as §1
MPO levels were evaluated from an aliquot of BALF in an MPO assay using Abcam kit (Cat. Ab155458) according to manufacturer's instructions.

[5] = groups 4, 5 and 6 vs dexamethasone 5 mg/kg IP, FIGS. 7-9

B1: MD31-170: recombinant MayDay polypeptide comprising amino acids 31-170 of ovine decorin, expressed in BL21 E. coli (protein)
chain: DEASGIGPEERFHEVPELEPMGPVCPFRCQCHLRVVQCSDLGLEKVPKDLPPDTALLDLQNNKITEIKDGDFKNLKNLHTLILINNKISKISPGAFAPLVKLERLYLSKNQLKELPEKMPKTLQELRVHENEITKVRKSV
modifications: Ovis aries
notes: recombinant MayDay polypeptide comprising amino acids 31-170 of ovine decorin, expressed in BL21 E. coli
protein levels of TNF-α in BALF ([1]; 6 hours post-administration, compared to LPS control group (group 2), FIG. 2A): significantly decreased
protein levels of IFN-γ in BALF ([1]; 24 hours post-administration, compared with LPS group (group 2), FIG. 3B): significantly decreased
protein levels of IL-6 in BALF ([1]; 24 hours post-administration, compared with LPS group (group 2), FIG. 4B): significantly decreased
neutrophil score, inflammation score and interstitial inflammation score: dose dependence ([2]; 6, 24 and 72 hours post LPS-induction): dose dependent changes
neutrophil score (histology) ([2]; 24 hours, group 6 (100 μg/mouse) compared to LPS control (group 2), FIG. 7B): statistically significant decreases
inflammation score (inflammation-neutrophilic alveolar score, histology) ([2]; 24 hours, group 6 (100 μg/mouse) compared to LPS control (group 2), FIG. 8B): statistically significant decreases
interstitial inflammation score (histology) ([2]; 24 hours, group 6 (100 μg/mouse) compared to LPS control (group 2), FIG. 9B): statistically significant decreases
lung injury score ([2]; groups 4, 5 and 6 (2.5, 25, 100 μg/animal IV)): consistently and substantially decreased
pathological changes in the lung (alveolar wall not intact, interstitial edema, inflammatory cell infiltration) ([2]; groups 4, 5 and 6 (2.5, 25, 100 μg/animal IV), H&E): alleviated
lung damage relative to dexamethasone treated animals (group 3) [2, 5]: comparable or less than
positive effect on lung pathology relative to positive control dexamethasone (group 3) [2, 5]: comparable to or better than
number of neutrophils in BALF [3]: decreased significantly
myeloperoxidase (MPO) in BALF [4]: significantly reduced
